What was measured:
[1] = biological target: T1, Human PD-1 (Swiss-Prot entry Q15116), full length, on cells (human, UniProt Q15116 21-288); test: CELISA on CHO-K1.hPDCD1 cells
T1 construct: Full length open reading frame of hPD-1 stably expressed on CHO-K1 cells; also endogenous PD-1 on CD3/CD28-stimulated human CD3+ T cells and PD-1 on transfected Jurkat cells; also called hPD-1; hPDCD1
Experimental: (§1) To further characterize these mutant hPD-1 antibodies they were tested for binding to hPD-1 in CELISA format using CHO-K1 cells (American Type Culture Collection, Manassas, Va.), stably transfected with cDNA encoding the full length open reading frame of hPDCD1 (hPD-1), subcloned into the pCI-neo vector (Promega). Parental CHO-K1 or CHO-K1.hPDCD1 cells were seeded in culture medium (DMEM-F12 (Gibco) with 10% Fetal Bovine Serum (Hyclone) and Pen/Strep (Gibco)) in tissue culture plates and incubated for 48 hours at 37° C. Subsequently culture medium was removed and cells were incubated for 1 hour at 37° C. with the mutant hPD-1 antibodies (10 μg/ml (=66 nM) and dilutions thereof). Next, cells were washed with Phosphate-Buffered Saline/0.05% Tween (PBST) and incubated for 1 hour at 37° C. with Goat-anti-human IgG-HRP (Southern Biotech). Subsequently, cells were washed 3 times with PBST and anti-hPD1 immunoreactivity was visualized with 100 al TMB Stabilized Chromagen (Invitrogen). Reactions were stopped with 100 al 0.5 M H2SO4 and absorbances were read at 450 and 610 nm. […] Blockade of hPD-L1 binding by the mutant hPD-1 antibodies was tested in CELISA format. Parental CHO-K1 or CHO-K1.hPDCD1 cells were seeded in tissue culture plates and incubated for 72 hours at 37° C. in culture medium. Subsequently culture medium was removed and cells were incubated for 1 hour with the mutant hPD-1 antibodies (10 μg/ml (=66 nM) and dilutions thereof) at 37° C. […] Cells were then washed three times with PBST followed by addition of Streptavidin-HRP conjugate on the cells, which was incubated for 1 hour at 37° C. […] Reactions were stopped with 100 al 0.5 M H2SO4 and absorbances were read at 450 and 610 nm. Calculated IC50 values in Table 12 for the blockade of hPD-L1 represent the concentration at which half of the inhibition is observed.

[2] = biological target: T1, Human PD-1 (Swiss-Prot entry Q15116), …; test: CELISA on CHO-K1.hPDCD1 cells; blocking of biotinylated hPD-L1 Fc
Experimental: as §1

T1 sequence (Q15116 21-288, one chain of several): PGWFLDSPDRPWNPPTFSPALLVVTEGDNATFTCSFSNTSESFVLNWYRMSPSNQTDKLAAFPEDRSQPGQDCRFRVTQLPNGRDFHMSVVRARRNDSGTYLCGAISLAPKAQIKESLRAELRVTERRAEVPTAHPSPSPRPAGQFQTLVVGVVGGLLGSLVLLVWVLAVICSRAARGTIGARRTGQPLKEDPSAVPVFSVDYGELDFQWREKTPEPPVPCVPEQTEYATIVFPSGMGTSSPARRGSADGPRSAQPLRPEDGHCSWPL

B1: hPD1.29H5_A9P_I28T_T31S_L4 (antibody, V domains shown)
VH: EVQLVQSGPEVKKPGASVKVSCKASGYTFTSYYIHWVKQAPGKGLEWIGWIFPGDVSTQYNEKFQDKATITVDKSASTAYMQLSSLRSEDTAVYYCTREAYDYAVYWGQGTLVTVSS
VL: DIQMTQAPSSLSASVGDRVTITCKASQNVDTNVAWFQQKPGKAPKSLIFSASYRYSGVPSRFSGSGSGTDFTLTISSLQPEDFATYYCQQYNNYPFTFGGGTKLEIK
notes: Mutant of hPD1.29H5L4 (human IgG4 S241P kappa format of the parent)
EC50 [1]: 300 pM
IC50 [2]: 1200 pM

B2: hPD1.29H5_A9P_K12V_I28T_T31S_L4 (antibody, V domains shown)
VH: EVQLVQSGPEVVKPGASVKVSCKASGYTFTSYYIHWVKQAPGKGLEWIGWIFPGDVSTQYNEKFQDKATITVDKSASTAYMQLSSLRSEDTAVYYCTREAYDYAVYWGQGTLVTVSS
VL: DIQMTQAPSSLSASVGDRVTITCKASQNVDTNVAWFQQKPGKAPKSLIFSASYRYSGVPSRFSGSGSGTDFTLTISSLQPEDFATYYCQQYNNYPFTFGGGTKLEIK
notes: as for B1
EC50 [1]: 300 pM
IC50 [2]: 1200 pM

B3: hPD1.29H5_K12V_L4 (antibody, V domains shown)
VH: EVQLVQSGAEVVKPGASVKVSCKASGYIFTTYYIHWVKQAPGKGLEWIGWIFPGDVSTQYNEKFQDKATITVDKSASTAYMQLSSLRSEDTAVYYCTREAYDYAVYWGQGTLVTVSS
VL: DIQMTQAPSSLSASVGDRVTITCKASQNVDTNVAWFQQKPGKAPKSLIFSASYRYSGVPSRFSGSGSGTDFTLTISSLQPEDFATYYCQQYNNYPFTFGGGTKLEIK
notes: as for B1
EC50 [1]: 400 pM
IC50 [2]: 1400 pM

B4: hPD1.29H5_A9P_L4 (antibody, V domains shown)
VH: EVQLVQSGPEVKKPGASVKVSCKASGYIFTTYYIHWVKQAPGKGLEWIGWIFPGDVSTQYNEKFQDKATITVDKSASTAYMQLSSLRSEDTAVYYCTREAYDYAVYWGQGTLVTVSS
VL: DIQMTQAPSSLSASVGDRVTITCKASQNVDTNVAWFQQKPGKAPKSLIFSASYRYSGVPSRFSGSGSGTDFTLTISSLQPEDFATYYCQQYNNYPFTFGGGTKLEIK
notes: as for B1
EC50 [1]: 400 pM
IC50 [2]: 1400 pM

B5: hPD1.29H5_I28D_T30D_L4 (antibody, V domains shown)
VH: EVQLVQSGAEVKKPGASVKVSCKASGYDFDTYYIHWVKQAPGKGLEWIGWIFPGDVSTQYNEKFQDKATITVDKSASTAYMQLSSLRSEDTAVYYCTREAYDYAVYWGQGTLVTVSS
VL: DIQMTQAPSSLSASVGDRVTITCKASQNVDTNVAWFQQKPGKAPKSLIFSASYRYSGVPSRFSGSGSGTDFTLTISSLQPEDFATYYCQQYNNYPFTFGGGTKLEIK
notes: as for B1
EC50 [1]: 400 pM
IC50 [2]: 1600 pM

B6: hPD1.29H5_I28T_T31S_L4 (antibody, V domains shown)
VH: EVQLVQSGAEVKKPGASVKVSCKASGYTFTSYYIHWVKQAPGKGLEWIGWIFPGDVSTQYNEKFQDKATITVDKSASTAYMQLSSLRSEDTAVYYCTREAYDYAVYWGQGTLVTVSS
VL: DIQMTQAPSSLSASVGDRVTITCKASQNVDTNVAWFQQKPGKAPKSLIFSASYRYSGVPSRFSGSGSGTDFTLTISSLQPEDFATYYCQQYNNYPFTFGGGTKLEIK
notes: as for B1
EC50 [1]: 300 pM
IC50 [2]: 1100 pM

B7: hPD1.29H5_I28D_L4 (antibody, V domains shown)
VH: EVQLVQSGAEVKKPGASVKVSCKASGYDFTTYYIHWVKQAPGKGLEWIGWIFPGDVSTQYNEKFQDKATITVDKSASTAYMQLSSLRSEDTAVYYCTREAYDYAVYWGQGTLVTVSS
VL: DIQMTQAPSSLSASVGDRVTITCKASQNVDTNVAWFQQKPGKAPKSLIFSASYRYSGVPSRFSGSGSGTDFTLTISSLQPEDFATYYCQQYNNYPFTFGGGTKLEIK
notes: as for B1
EC50 [1]: 300 pM
IC50 [2]: 1600 pM

B8: hPD1.29H5_Y32D_L4 (antibody, V domains shown)
VH: EVQLVQSGAEVKKPGASVKVSCKASGYIFTTDYIHWVKQAPGKGLEWIGWIFPGDVSTQYNEKFQDKATITVDKSASTAYMQLSSLRSEDTAVYYCTREAYDYAVYWGQGTLVTVSS
VL: DIQMTQAPSSLSASVGDRVTITCKASQNVDTNVAWFQQKPGKAPKSLIFSASYRYSGVPSRFSGSGSGTDFTLTISSLQPEDFATYYCQQYNNYPFTFGGGTKLEIK
notes: IgG4 S241P kappa format of the parent
EC50 [1]: 300 pM
IC50 [2]: 1400 pM

B9: hPD1.29H5_I28D_T31D_L4 (antibody, V domains shown)
VH: EVQLVQSGAEVKKPGASVKVSCKASGYDFTDYYIHWVKQAPGKGLEWIGWIFPGDVSTQYNEKFQDKATITVDKSASTAYMQLSSLRSEDTAVYYCTREAYDYAVYWGQGTLVTVSS
VL: DIQMTQAPSSLSASVGDRVTITCKASQNVDTNVAWFQQKPGKAPKSLIFSASYRYSGVPSRFSGSGSGTDFTLTISSLQPEDFATYYCQQYNNYPFTFGGGTKLEIK
notes: as for B1
EC50 [1]: 400 pM
IC50 [2]: 1400 pM

B10: hPD1.29H5_K12V_I28T_T31S_L4 (antibody, V domains shown)
VH: EVQLVQSGAEVVKPGASVKVSCKASGYTFTSYYIHWVKQAPGKGLEWIGWIFPGDVSTQYNEKFQDKATITVDKSASTAYMQLSSLRSEDTAVYYCTREAYDYAVYWGQGTLVTVSS
VL: DIQMTQAPSSLSASVGDRVTITCKASQNVDTNVAWFQQKPGKAPKSLIFSASYRYSGVPSRFSGSGSGTDFTLTISSLQPEDFATYYCQQYNNYPFTFGGGTKLEIK
notes: as for B1
EC50 [1]: 300 pM
IC50 [2]: 1200 pM

B11: hPD1.29H5_T31D_L4 (antibody, V domains shown)
VH: EVQLVQSGAEVKKPGASVKVSCKASGYIFTDYYIHWVKQAPGKGLEWIGWIFPGDVSTQYNEKFQDKATITVDKSASTAYMQLSSLRSEDTAVYYCTREAYDYAVYWGQGTLVTVSS
VL: DIQMTQAPSSLSASVGDRVTITCKASQNVDTNVAWFQQKPGKAPKSLIFSASYRYSGVPSRFSGSGSGTDFTLTISSLQPEDFATYYCQQYNNYPFTFGGGTKLEIK
notes: as for B1
EC50 [1]: 400 pM
IC50 [2]: 1700 pM

B12: hPD1.29H5_A9P_K12V_L4 (antibody, V domains shown)
VH: EVQLVQSGPEVVKPGASVKVSCKASGYIFTTYYIHWVKQAPGKGLEWIGWIFPGDVSTQYNEKFQDKATITVDKSASTAYMQLSSLRSEDTAVYYCTREAYDYAVYWGQGTLVTVSS
VL: DIQMTQAPSSLSASVGDRVTITCKASQNVDTNVAWFQQKPGKAPKSLIFSASYRYSGVPSRFSGSGSGTDFTLTISSLQPEDFATYYCQQYNNYPFTFGGGTKLEIK
notes: as for B1
EC50 [1]: 400 pM
IC50 [2]: 1300 pM

B13: hPD1.29H5_I28D_Y32D_L4 (antibody, V domains shown)
VH: EVQLVQSGAEVKKPGASVKVSCKASGYDFTTDYIHWVKQAPGKGLEWIGWIFPGDVSTQYNEKFQDKATITVDKSASTAYMQLSSLRSEDTAVYYCTREAYDYAVYWGQGTLVTVSS
VL: DIQMTQAPSSLSASVGDRVTITCKASQNVDTNVAWFQQKPGKAPKSLIFSASYRYSGVPSRFSGSGSGTDFTLTISSLQPEDFATYYCQQYNNYPFTFGGGTKLEIK
notes: as for B8
EC50 [1]: 400 pM
IC50 [2]: 1300 pM

B14: hPD1.29H5_T30D_L4 (antibody, V domains shown)
VH: EVQLVQSGAEVKKPGASVKVSCKASGYIFDTYYIHWVKQAPGKGLEWIGWIFPGDVSTQYNEKFQDKATITVDKSASTAYMQLSSLRSEDTAVYYCTREAYDYAVYWGQGTLVTVSS
VL: DIQMTQAPSSLSASVGDRVTITCKASQNVDTNVAWFQQKPGKAPKSLIFSASYRYSGVPSRFSGSGSGTDFTLTISSLQPEDFATYYCQQYNNYPFTFGGGTKLEIK
notes: as for B1
EC50 [1]: 300 pM
IC50 [2]: 1600 pM

Reference: patent publication US20180030137A1 (ADURO BIOTECH HOLDINGS EUROPE B V, published 2018)
